Reference: paper PMC3121171 (Forum on immunopathological diseases and therapeutics, 2011)

Target: T1, Purified recombinant human GRK2 (G protein-coupled receptor kinase 2) (human, UniProt P25098 1-689)
T1 sequence (looked up): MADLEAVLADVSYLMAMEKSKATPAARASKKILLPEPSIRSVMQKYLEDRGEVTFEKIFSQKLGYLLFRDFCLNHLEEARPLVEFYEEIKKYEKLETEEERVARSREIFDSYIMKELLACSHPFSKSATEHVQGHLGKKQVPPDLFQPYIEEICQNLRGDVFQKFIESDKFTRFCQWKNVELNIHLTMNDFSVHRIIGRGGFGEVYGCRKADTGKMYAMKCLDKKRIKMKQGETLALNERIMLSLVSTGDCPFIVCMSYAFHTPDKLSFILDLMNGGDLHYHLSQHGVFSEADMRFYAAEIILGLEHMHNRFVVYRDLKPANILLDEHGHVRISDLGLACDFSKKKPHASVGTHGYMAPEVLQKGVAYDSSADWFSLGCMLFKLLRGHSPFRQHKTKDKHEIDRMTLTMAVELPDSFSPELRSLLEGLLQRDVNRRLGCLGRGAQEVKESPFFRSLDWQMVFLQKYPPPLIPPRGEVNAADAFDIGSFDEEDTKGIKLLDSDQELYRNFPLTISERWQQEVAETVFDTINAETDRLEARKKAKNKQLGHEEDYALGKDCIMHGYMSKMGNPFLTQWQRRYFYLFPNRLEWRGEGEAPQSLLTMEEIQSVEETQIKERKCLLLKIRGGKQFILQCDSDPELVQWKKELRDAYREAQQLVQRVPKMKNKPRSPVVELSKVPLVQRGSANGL
Assay: pull-down

binding result: binds
B1: His-tagged human RKIP-1/PEBP-1 (Raf kinase inhibitor protein) (natural protein)
chain: MPVDLSKWSGPLSLQEVDEQPQHPLHVTYAGAAVDELGKVLTPTQVKNRPTSISWDGLDSGKLYTLVLTDPDAPSRKDPKYREWHHFLVVNMKGNDISSGTVLSDYVGSGPPKGTGLHRYVWLVYEQDRPLKCDEPILSNRSGDHRGKFKVASFRKKYELRAPVAGTCYQAEWDDYVPKLYEQLSGK
